{"source": "the DeepSol protein solubility set"}
{"assay": "soluble on expression in E. coli; label from the status in PepcDB or PDB records"}
{"sequence": "MNQTDTSPIRLRRSWNTSEIEALFDEHAGRIDPRIYTDEDLYQLELERVFARSWLLLGHETQIRKPGDYITTYMGEDPVVVVRQKDASIAVFLNQCRHRGMRICRADAGNAKAFTCSYHGWAYDTAGNLVNVPYEAESFACLNKKEWSPLKARVETYKGLIFANWDENAVDLDTYLGEAKFYMDHMLDRTEAGTEAIPGVQKWVIPCNWKFAAEQFCSDMYHAGTTSHLSGILAGLPEDLEMADLAPPTVGKQYRASWGGHGSGFYVGDPNLMLAIMGPKVTSYWTEGPASEKAAERLGSVERGSKLMVEHMTVFPTCSFLPGINTVRTWHPRGPNEVEVWAFTVVDADAPDDIKEEFRRQTLRTFSAGGVFEQDDGENWVEIQHILRGHKARSRPFNAEMSMDQTVDNDPVYPGRISNNVYSEEAARGLYAHWLRMMTSPDWDALKATR", "soluble on expression in E. coli": "soluble"}
{"sequence": "MGHHHHHHSHMGKKIKKEVEPPPKDVFDPLMIESKKAATVVLMLNSPEEEILAKACEAIYKFALKGEENKTTLLELGAVEPLTKLLTHEDKIVRRNATMIFGILASNNDVKKLLRELDVMNSVIAQLAPEEEVVIHEFASLCLANMSAEYTSKVQIFEHGGLEPLIRLLSSPDPDVKKNSMECIYNLVQDFQCRAKLQELNAIPPILDLLKSEYPVIQLLALKTLGVIANDKESRTMLRDNQGLDHLIKILETKELNDLHIEALAVIANCLEDMDTMVQIQQTGGLKKLLSFAENSTIPDIQKNAAKAITKAAYDPENRKLFHEQEVEKCLVALLGSENDGTKIAASQAISAMCENSGSKDFFNNQGIPQLIQLLKSDNEEVREAAALALANLTTCNPANANAAAEADGIDPLINLLSSKRDGAIANAATVLTNMAMQEPLRLNIQNHDIMHAIISPLRSANTVVQSKAALAVTATACDVEARTELRNSGGLEPLVELLRSKNDEVRKHASWAVMVCAGDELTANELCRLGALDILEEVNVSGTRKNKFSEAAYNKLLNNNLSLKYSQTGYLSSSNIINDGFYDYGRINPGTKLLPLKEL", "soluble on expression in E. coli": "not soluble"}
{"sequence": "MSLRPQAPMTQTPMAQASTSTTTPQKIVLYMATTTSVKDTGLLDVLIPDFEKWAASRGYNIEVRYTAVGTGQALAMAARGDVDVVIVHAPSLEKQYLENGTLKCRDVIAYNFFIIVGPRDDPAGAKSLTATEAFRRIAEAKAPFVSRGDRSGTHLMELSLWRRAIGREPDPKNDTWYISAGAGMGQTLLLANEKSAYTLSDTGTWLRYRDKLPQLDVIVQAAPDLINIYSFSIVKLSNATRLMAQYMKTRGLEVIGNLTINGVSLFTPINKADPKAMEWIKTAIFGPSCVEREGHHHHHH", "soluble on expression in E. coli": "soluble"}
{"sequence": "MSLNPASMKYEDQEFVIFDVETTGLSSVYDTIIEIGAVKMKNGEVIDRFDKFINPHHPLSETTINLTSITDEMVQAADDEAVVIKQFMDFYGNDPLCGHNVQFDVGFVDAALKRCGYPEISQPVVDTLEVSRLLHPEQSRHTLDSLCRKYNVPLEHHHRANQDAEATGYLMFKLLDAFNDKYQEDDLGKMNDYSNGEGYKRARPTHITVLAQNQKPGLRNLYELVSLAGIKYNFKGLRTPKSELRRLHAGLLYGSACSQGEVFIAMMQKGYEEAKKKAEFYDFLEIQPPSNYSSLIADGLIADEAQLEEILTNIYKLGRELNKPVVATSDAHYIDKHEAIYRDVLLAAQRGNPNRNKQHPDLHFYTTQEMLDEFSFMGEDIAKEVVISNPNKINAMIDEGVQPVQDESFPPKIPHTAERVRKLTYDKAHELYGDPLPDNIQARLDRELDAIIGNGYGVVYLISQMLVAKSVKDGYLVGSRGSVGSSLVATMMGITEINPMPPHYRCPKCKQSEFFENGEYASGFDLPDKKCPDCQVMMVKDGQNIPFETFLGFHGDKVPDIDLNFSGDYQPVAHNFIRVMFGPNHSFKAGTVGTLADKKAIGYVKHYQDEHPEIKMNNAEVDRLAIGVTGVKATTGQHPAGIVVLPDDKDIYELTPLQYPSDDISKEWKTTHFDFHQIHDNLLKFDILGHQDPTMIRMLQDLSGIDPLTIPTDDPKVMSLFSSPEALGVTPEQINSKTGTLGLPEFGTPFVRGMLEETKPSTFAELLQISGLSHGTDVWLGNAEELINNGTCKLKNVIGCRDNIMTDLIRWGVKEEVAFSTMETVRKGKGISDENMAVLKENKNIPDWYIPSCLKIKYMFPKAHAAAYILMALRVAWFKVYYPEIYYAAYFSVRADKVDLEAMSRGKNTVVALINRIKEKGTAATKLEKDLQTYMELVNEAIERGINFKMVDINESEATTYKIVDKHTILAPFNAVDGLGDSAAKQIVAARSEAPFLSKEDLQVRGKVSQKIMDFFENNNVLEGMPDQNQLSLFEGHHHHHH", "soluble on expression in E. coli": "soluble"}
{"sequence": "QTPVYLDTSKPIEERVKDALSRMTLEEKVKMTHAQSKFSSPGVPRLGIPEVWATDGPHGIRPEVLWDEWDQAGWTNDSCIAYPALTCLSATWNPEMSYLYGKSIGEEARYRKKDILLGPGVNIYRTPLNGRNFEYMGEDPYLSSMMVVPYIKGVQENGVAACVKHYALNNQEFNRHTTNVHLSDRALYEIYLPAFKAAVQEGGAWAIMGAYNLYSFSEDTDSGKLYKTQHACHNKRLLQDILRKEWGFDGVVVSDWGGVHDTFQAISNGLDMEFGSWTNGLSAGTRNAYDNYYLAHPYLKLIQDGTVGTKELDEKVSNILRLIFRTSMNPH", "soluble on expression in E. coli": "not soluble"}
{"sequence": "KVVAKGLGLSKAYVGQKSSFTVDCSKAGNNMLLVGVHGPRTPCEEILVKHVGSRLYSVSYLLKDKGEYTLVVKWGHEHIPGSPYRVVVP", "soluble on expression in E. coli": "soluble"}
{"sequence": "MLTRLNRSFVQAARSMYIQVQETPNPLSLKFLPGQQLLPDASKTYDFSSAATAKQSPLAIKLLRVDGVKRVFFGEDFVTVTKSDETVDWALLRPEIFSTIADHIQTGKPVINEAATVSDQVEEDDEVVMMIKEILETRIRPMVQEDGGDITYVGFDDGVVKLKMQGSCTGCPSSGVTLKNGIENMLTFYVPEVKEVIEVKDESDDLVEQELKKFEQSKGIKD", "soluble on expression in E. coli": "not soluble"}
{"sequence": "MIFNIQRYSTHDGPGIRTVVFLKGCSLGCRWCQNPESRARSEDLLYDSRLCLAGCELCQQAAPAVITRTLDGLIIHRQNVNDSHIAALRDCCPTTALTVCGEEKSVEEIMATVLRDKPFYDRSGGGITLSGGEPFMNPTLAQALFEASHQAGIHTAVETCLHVPWKYIEPSLPFVDLFLADLKHVDEAVFQQWTDGSARRVLDNLQRLAQAGKKMIIRVPLIQGFNASEADIAAITDFAADRLQVSEIHYLPYHTLGMNKYQLLSQPYTAPDKPLDAPELLVFAQDYAQSKGLTAILRG", "soluble on expression in E. coli": "not soluble"}
{"sequence": "MDNQPYNPLHGLTLKTIVTELEAYFGFETLGKTIKIKCFTDDPSIQSTLKFLRKTPWAREKVEQLYIKNKIKIQNSFESGDLDLEHHHHHH", "soluble on expression in E. coli": "not soluble"}
{"sequence": "MDIRELVHLGRYAVWNAFEGKEIKVPEALKEKYSRNMGVFTTLKTYPEHNLRGCIGVPLPVYPLWYATVYSSLQAAFQDPRFYPLKKEEFDKVLWEITLLTPPEELKVPKEELPEQIEIGKHGLIIEKGEQKGLLLPQVPVEYGWSPVEFLEYTCLKAGLPKDCWKDKETKVYVFSGEVYQEKEPFGEVERVNLKLEHHHHHH", "soluble on expression in E. coli": "soluble"}
{"sequence": "SASTGSQASDIDEIFGFFNDGEPPTKKPRKLLPSLKTKKPRELVLVIGTGISAAVAPQVPALKSWKGLIQALLDAAIDFDLLEDEESKKFQKCLHEDKNLVHVAHDLIQKLSPRTSNVRSTFFKDCLYEVFDDLESKMEDSGKQLLQSVLHLMENGALVLTTNFDNLLELYAADQGKQLESLDLTDEKKVLEWAQEKRKLSVLHIHGVYTNPSGIVLHPAGYQNVLRNTEVMREIQKLYENKSFLFLGCGWTVDDTTFQALFLEAVKHKSDLEHFMLVRRGDVDEFKKLRENMLDKGIKVISYGDDYADLPEYFKRLTCEISTRGTSAGMVREGQLNGSSAAHSEIRGCST", "soluble on expression in E. coli": "soluble"}
{"sequence": "GPGSMKTENFPRGQSAGPEGSLVEIPDHGERQQEVCHIGAPLQREIEAPAAEAGQSSDYKKPHAPHLLPVMEPVKPSSDPQLKDGRKEMPFTSALPIVVPDAPRLATQQRQVQKTKGNGSSAVPGEPDTCEGEPRAPSPGDPRPTQAFPAVEPFKRTASAKLSEARTDPRSPSASPDNESDGARVGSRQVDEEGSRPLCTLPAVELRKKPAGSTLQEEQAKELNTTHAFPVVEPDAVCTEARRSEELEDTRAGHAFPPVASGKQNTGA", "soluble on expression in E. coli": "soluble"}
{"sequence": "MGSDKIHHHHHHMWKHVKQVDPEIYEVLVNELKRQEYGLELIASENFASLAVIETMGSMLTNKYAEGYPKKRYYGGCEWVDRAEERAIERAKRLFGAKFANVQPHSGSQANMAVYLALAQPGDTIMGMSLSHGGHLTHGAPVNFSGKIFKVVPYGVNLETETIDYDEVRRLALEHKPKIIVAGGSAYARIIDFKRFREIADEVGAYLMVDMAHFAGLVAAGIHPNPLEYAHVVTSTTHKTLRGPRGGLILTNDPEIAKAVDKTIFPGIQGGPLMHVIAAKAVCFKEAMTEEFKEYQKQVVKNAKKMAEEFQKRGYRIVSGGTDTHLFLVDLTPKDITGKAAEKALESCGITVNKNTIPNEKRSPFVASGIRIGTPAVTTRGMKEEEMEEIAEMIDLVLSNVIDENGTVKPEVREEVSKKVRELCERFPLYRDKIEGVEI", "soluble on expression in E. coli": "not soluble"}
{"sequence": "METNMTFVLKEFDALKSHFNDTVKIILQREKKDKIEDLPNPRKEELQFLTAVLNQLEAKIDELKPRSLASYVHVFYGAMLLVCKDVENNLRVMEKKENSLLFTRLMDGMGISDENIPTSEQNIMFYRGLNKFLNFIYESNDSRKGLKKEHFLQVLSLKKIYSLAKLSYEQEEAAENNALAKLTADGKTKANANSFHVEKPIDSSIVEQFKSWDEMKGALHQLILDELSDKNVAKISALSQARSAQLKFLQTMAEQLDKIPNQSLEPSEKMAILAGAMYIVRGQIAQEYGKDPLSNDKISATVIHTGLSTILHANADCCEDKEVLIAAANKFIRHMVIERPEQSNKKITKESVRENNMFSDIAGFQLISVLTLIQNMIKTCRTDAIEACVTKRKEELEALKPKKEGYSIASSVTGYVGSWFKKAPSMSEEDEEDDLKDQNTAEETSKPTV", "soluble on expression in E. coli": "not soluble"}
{"sequence": "MLLAYIDEIGSTGAFIHPNHNRFSDSPAFGYGGFIIPEESAREFGSYFAERKKIFFRNEIPNNIDPGRWEKKGSDLLFALAINERPQNLRLLGSLISKLRKLDGHLFYYAEEKPIGTPKATNCGATEFRDREETAMRETLNRIARHADYEDSRVLVMMDQINEKSRIQRLPAMYAHILGRASEHQEMRRIVEPPMHIDSQLSTNIQFADWICSLAKRAIEYQLVEDSRYSWVSTAEALTPARGSFTYESKLRLYHRAIDDLNHSSILRPTRPLFNSKINQTLDEENRRKLEKVRAATIKEANN", "soluble on expression in E. coli": "not soluble"}
{"sequence": "MERYAAALEEVADGARQQERHYQLLSALQSLVKELPSSFQQRLSYTTLSDLALALLDGTVFEIVQGLLEIQHLTEKSLYNQRLRLQNEHRVLRQALRQKHQEAQQACRPHNLPVVQAAQQRELEAVEHRIREEQRAMDQKIILELDRKVADQQSTLEKAGVAGFYVTTNPQELMLQMNLLELIRKLQQRGCRAGNAALGLGGPWQSPAAQCDQKGSPVPP", "soluble on expression in E. coli": "soluble"}
